Laboratory results from article PMC9482650, “Quantitative fragmentomics allow affinity mapping of interactomes” (Nature Communications, 2022).

target: T1, MPP7, Q5T2T1; experiment: holdup assay; design: key: below the threshold = too weak to quantify, mostly under pKd 3.1 to 4; settings: plain residues with an end cap or a label only (N-terminal biotin on a linker: ado-ado)
T1 sequence (Q5T2T1 134-230, limits assumed, looked up): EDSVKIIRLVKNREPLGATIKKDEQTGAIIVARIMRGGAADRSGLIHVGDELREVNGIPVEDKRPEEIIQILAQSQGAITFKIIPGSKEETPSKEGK

Question: With LVEEEEPMNL [HDAC7, Q8WUI4] as the binder, how does the pKd read?
Answer: below the threshold

target: FRMPD4, Q14CM0; experiment: holdup assay; design: key: below the threshold = too weak to quantify, mostly under pKd 3.1 to 4; settings: plain residues with an end cap or a label only (N-terminal biotin on a linker: ado-ado)
Sequence (Q14CM0 67-160): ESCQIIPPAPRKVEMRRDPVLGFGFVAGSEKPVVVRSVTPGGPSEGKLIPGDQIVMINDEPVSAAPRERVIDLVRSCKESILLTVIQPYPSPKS

Question: For LVEEEEPMNL [HDAC7, Q8WUI4], which pKd is on record?
Answer: 3.86

target: T2, RAPGEF6, Q8TEU7; experiment: holdup assay; design: key: below the threshold = too weak to quantify, mostly under pKd 3.1 to 4; settings: plain residues with an end cap or a label only (N-terminal biotin on a linker: ado-ado)
T2 sequence (Q8TEU7 525-625, limits assumed, looked up): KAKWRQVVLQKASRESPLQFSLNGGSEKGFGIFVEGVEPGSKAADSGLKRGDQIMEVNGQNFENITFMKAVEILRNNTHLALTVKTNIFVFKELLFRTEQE

Question: How did the pKd turn out when LVEEEEPMNL [HDAC7, Q8WUI4] was run?
Answer: below the threshold

target: CASK, O14936; experiment: holdup assay; design: key: below the threshold = too weak to quantify, mostly under pKd 3.1 to 4; settings: plain residues with an end cap or a label only (N-terminal biotin on a linker: ado-ado)
Sequence (O14936 487-570): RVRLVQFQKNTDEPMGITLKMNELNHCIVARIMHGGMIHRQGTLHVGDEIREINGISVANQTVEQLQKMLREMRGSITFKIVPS

Question: For LVEEEEPMNL [HDAC7, Q8WUI4], which pKd is on record?
Answer: below the threshold

target: MAST1, Q9Y2H9; experiment: holdup assay; design: key: below the threshold = too weak to quantify, mostly under pKd 3.1 to 4; settings: plain residues with an end cap or a label only (N-terminal biotin on a linker: ado-ado)
Sequence (Q9Y2H9 962-1065): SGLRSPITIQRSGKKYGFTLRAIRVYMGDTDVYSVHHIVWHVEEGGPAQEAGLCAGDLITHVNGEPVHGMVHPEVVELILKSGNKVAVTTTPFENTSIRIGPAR

Question: Which pKd does the source give for LVEEEEPMNL [HDAC7, Q8WUI4] here?
Answer: 3.61

target: LDB3, O75112; experiment: holdup assay; design: key: below the threshold = too weak to quantify, mostly under pKd 3.1 to 4; settings: plain residues with an end cap or a label only (N-terminal biotin on a linker: ado-ado)
Sequence (O75112 1-94): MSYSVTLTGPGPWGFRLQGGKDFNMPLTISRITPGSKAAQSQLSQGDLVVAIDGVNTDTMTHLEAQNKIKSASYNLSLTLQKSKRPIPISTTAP

Question: For LVEEEEPMNL [HDAC7, Q8WUI4], which pKd is on record?
Answer: below the threshold

target: HTRA2, O43464; experiment: holdup assay; design: key: below the threshold = too weak to quantify, mostly under pKd 3.1 to 4; settings: plain residues with an end cap or a label only (N-terminal biotin on a linker: ado-ado)
Sequence (O43464 355-458): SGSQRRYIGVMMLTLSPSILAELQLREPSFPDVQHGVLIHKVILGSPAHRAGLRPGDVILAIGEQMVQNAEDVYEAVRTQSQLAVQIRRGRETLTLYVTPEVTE

Question: Which pKd does the source give for LVEEEEPMNL [HDAC7, Q8WUI4] here?
Answer: below the threshold

target: MAGI2_5, Q86UL8; experiment: holdup assay; design: key: below the threshold = too weak to quantify, mostly under pKd 3.1 to 4; settings: plain residues with an end cap or a label only (N-terminal biotin on a linker: ado-ado)
Sequence (Q86UL8 915-1017): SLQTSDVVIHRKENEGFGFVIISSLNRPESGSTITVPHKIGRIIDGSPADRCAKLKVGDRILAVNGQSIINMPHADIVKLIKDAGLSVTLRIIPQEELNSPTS

Question: LVEEEEPMNL [HDAC7, Q8WUI4] was tested. Which pKd did it give?
Answer: below the threshold

target: T3, RADIL, Q96JH8; experiment: holdup assay; design: key: below the threshold = too weak to quantify, mostly under pKd 3.1 to 4; settings: plain residues with an end cap or a label only (N-terminal biotin on a linker: ado-ado)
T3 sequence (Q96JH8 971-1071, limits assumed, looked up): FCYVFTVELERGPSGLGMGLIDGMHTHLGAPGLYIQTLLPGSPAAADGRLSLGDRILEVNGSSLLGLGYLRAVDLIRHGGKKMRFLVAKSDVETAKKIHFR

Question: For LVEEEEPMNL [HDAC7, Q8WUI4], which pKd is on record?
Answer: below the threshold

target: MAGI2_3, Q86UL8; experiment: holdup assay; design: key: below the threshold = too weak to quantify, mostly under pKd 3.1 to 4; settings: plain residues with an end cap or a label only (N-terminal biotin on a linker: ado-ado)
Sequence (Q86UL8 600-682): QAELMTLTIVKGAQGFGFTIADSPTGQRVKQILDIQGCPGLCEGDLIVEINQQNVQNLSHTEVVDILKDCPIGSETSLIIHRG

Question: With LVEEEEPMNL [HDAC7, Q8WUI4] as the binder, how does the pKd read?
Answer: below the threshold

target: T4, GRIP1_2, Q9Y3R0; experiment: holdup assay; design: key: below the threshold = too weak to quantify, mostly under pKd 3.1 to 4; settings: plain residues with an end cap or a label only (N-terminal biotin on a linker: ado-ado)
T4 sequence (Q9Y3R0 145-248, limits assumed, looked up): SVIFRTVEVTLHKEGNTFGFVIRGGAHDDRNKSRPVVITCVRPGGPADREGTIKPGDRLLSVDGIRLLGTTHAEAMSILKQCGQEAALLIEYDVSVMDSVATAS

Question: LVEEEEPMNL [HDAC7, Q8WUI4] was tested. Which pKd did it give?
Answer: below the threshold

target: GIPC2, Q8TF65; experiment: holdup assay; design: key: below the threshold = too weak to quantify, mostly under pKd 3.1 to 4; settings: plain residues with an end cap or a label only (N-terminal biotin on a linker: ado-ado)
Sequence (Q8TF65 112-203): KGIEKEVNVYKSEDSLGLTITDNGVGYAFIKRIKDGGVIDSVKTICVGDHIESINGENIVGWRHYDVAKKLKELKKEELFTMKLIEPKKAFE

Question: For LVEEEEPMNL [HDAC7, Q8WUI4], which pKd is on record?
Answer: below the threshold

target: MAGI3_2, Q5TCQ9; experiment: holdup assay; design: key: below the threshold = too weak to quantify, mostly under pKd 3.1 to 4; settings: plain residues with an end cap or a label only (N-terminal biotin on a linker: ado-ado)
Sequence (Q5TCQ9 398-503): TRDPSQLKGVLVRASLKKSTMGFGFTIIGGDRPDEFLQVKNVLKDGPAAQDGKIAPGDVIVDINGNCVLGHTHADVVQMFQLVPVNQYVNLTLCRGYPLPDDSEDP

Question: How did the pKd turn out when LVEEEEPMNL [HDAC7, Q8WUI4] was run?
Answer: below the threshold

target: T5, LRRC7, Q96NW7; experiment: holdup assay; design: key: below the threshold = too weak to quantify, mostly under pKd 3.1 to 4; settings: plain residues with an end cap or a label only (N-terminal biotin on a linker: ado-ado)
T5 sequence (Q96NW7 1440-1537, limits assumed, looked up): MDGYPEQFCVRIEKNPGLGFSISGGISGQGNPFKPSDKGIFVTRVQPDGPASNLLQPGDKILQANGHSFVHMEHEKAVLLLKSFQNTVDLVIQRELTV

Question: How did the pKd turn out when LVEEEEPMNL [HDAC7, Q8WUI4] was run?
Answer: below the threshold

target: GRIP2_6, Q9C0E4; experiment: holdup assay; design: key: below the threshold = too weak to quantify, mostly under pKd 3.1 to 4; settings: plain residues with an end cap or a label only (N-terminal biotin on a linker: ado-ado)
Sequence (Q9C0E4 648-740): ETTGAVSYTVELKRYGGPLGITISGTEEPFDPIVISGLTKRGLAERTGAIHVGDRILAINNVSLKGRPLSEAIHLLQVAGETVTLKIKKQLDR

Question: How did the pKd turn out when LVEEEEPMNL [HDAC7, Q8WUI4] was run?
Answer: below the threshold

target: PTPN3, P26045; experiment: holdup assay; design: key: below the threshold = too weak to quantify, mostly under pKd 3.1 to 4; settings: plain residues with an end cap or a label only (N-terminal biotin on a linker: ado-ado)
Sequence (P26045 505-587): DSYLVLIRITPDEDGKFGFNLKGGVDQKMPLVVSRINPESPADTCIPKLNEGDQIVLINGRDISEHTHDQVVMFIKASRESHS

Question: LVEEEEPMNL [HDAC7, Q8WUI4] was tested. Which pKd did it give?
Answer: 4.04

target: IL16_1, Q14005; experiment: holdup assay; design: key: below the threshold = too weak to quantify, mostly under pKd 3.1 to 4; settings: plain residues with an end cap or a label only (N-terminal biotin on a linker: ado-ado)
Sequence (Q14005 210-306): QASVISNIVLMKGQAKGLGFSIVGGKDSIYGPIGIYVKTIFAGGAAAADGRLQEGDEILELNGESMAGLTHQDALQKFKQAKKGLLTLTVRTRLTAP

Question: How did the pKd turn out when LVEEEEPMNL [HDAC7, Q8WUI4] was run?
Answer: below the threshold

target: DLG4_3, P78352; experiment: holdup assay; design: key: below the threshold = too weak to quantify, mostly under pKd 3.1 to 4; settings: plain residues with an end cap or a label only (N-terminal biotin on a linker: ado-ado)
Sequence (P78352 306-403): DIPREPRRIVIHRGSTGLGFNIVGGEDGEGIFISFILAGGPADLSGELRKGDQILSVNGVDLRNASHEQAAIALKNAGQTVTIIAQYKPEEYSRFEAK

Question: For LVEEEEPMNL [HDAC7, Q8WUI4], which pKd is on record?
Answer: below the threshold

target: PDZRN4_1, Q6ZMN7; experiment: holdup assay; design: key: below the threshold = too weak to quantify, mostly under pKd 3.1 to 4; settings: plain residues with an end cap or a label only (N-terminal biotin on a linker: ado-ado)
Sequence (Q6ZMN7 213-318): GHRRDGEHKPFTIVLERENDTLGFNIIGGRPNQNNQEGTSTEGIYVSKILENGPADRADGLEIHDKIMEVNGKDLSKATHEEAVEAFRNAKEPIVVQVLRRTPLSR

Question: For LVEEEEPMNL [HDAC7, Q8WUI4], which pKd is on record?
Answer: below the threshold

target: Inadl_4, Q8NI35; experiment: holdup assay; design: key: below the threshold = too weak to quantify, mostly under pKd 3.1 to 4; settings: plain residues with an end cap or a label only (N-terminal biotin on a linker: ado-ado)
Sequence (Q8NI35 547-651): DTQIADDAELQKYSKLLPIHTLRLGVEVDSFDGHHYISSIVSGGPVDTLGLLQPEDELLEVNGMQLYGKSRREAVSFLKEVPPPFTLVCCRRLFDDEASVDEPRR

Question: For LVEEEEPMNL [HDAC7, Q8WUI4], which pKd is on record?
Answer: below the threshold

target: Inadl_2, Q8NI35; experiment: holdup assay; design: key: below the threshold = too weak to quantify, mostly under pKd 3.1 to 4; settings: plain residues with an end cap or a label only (N-terminal biotin on a linker: ado-ado)
Sequence (Q8NI35 238-335): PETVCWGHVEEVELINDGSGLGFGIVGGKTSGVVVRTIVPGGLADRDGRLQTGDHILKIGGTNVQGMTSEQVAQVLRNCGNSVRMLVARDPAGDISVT

Question: How did the pKd turn out when LVEEEEPMNL [HDAC7, Q8WUI4] was run?
Answer: below the threshold

target: T6, MPDZ_5, O75970; experiment: holdup assay; design: key: below the threshold = too weak to quantify, mostly under pKd 3.1 to 4; settings: plain residues with an end cap or a label only (N-terminal biotin on a linker: ado-ado)
T6 sequence (O75970 695-796, limits assumed, looked up): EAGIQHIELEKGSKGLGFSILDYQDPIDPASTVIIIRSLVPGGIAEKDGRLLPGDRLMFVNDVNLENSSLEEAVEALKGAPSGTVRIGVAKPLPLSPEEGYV

Question: LVEEEEPMNL [HDAC7, Q8WUI4] was tested. Which pKd did it give?
Answer: below the threshold

target: NHERF4_1, Q86UT5-2; experiment: holdup assay; design: key: below the threshold = too weak to quantify, mostly under pKd 3.1 to 4; settings: plain residues with an end cap or a label only (N-terminal biotin on a linker: ado-ado)
Sequence (Q86UT5 other isoform, or with tags, fused parts or gaps): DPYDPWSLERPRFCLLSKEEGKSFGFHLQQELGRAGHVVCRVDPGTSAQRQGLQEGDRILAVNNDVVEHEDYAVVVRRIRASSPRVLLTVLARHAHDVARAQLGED

Question: LVEEEEPMNL [HDAC7, Q8WUI4] was tested. Which pKd did it give?
Answer: 3.57

target: FRMPD2_3, Q68DX3; experiment: holdup assay; design: key: below the threshold = too weak to quantify, mostly under pKd 3.1 to 4; settings: plain residues with an end cap or a label only (N-terminal biotin on a linker: ado-ado)
Sequence (Q68DX3 1073-1166): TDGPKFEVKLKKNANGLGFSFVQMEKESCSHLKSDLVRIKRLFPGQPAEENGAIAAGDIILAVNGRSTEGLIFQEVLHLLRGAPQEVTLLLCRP

Question: LVEEEEPMNL [HDAC7, Q8WUI4] was tested. Which pKd did it give?
Answer: below the threshold

target: T7, MPDZ_10, O75970; experiment: holdup assay; design: key: below the threshold = too weak to quantify, mostly under pKd 3.1 to 4; settings: plain residues with an end cap or a label only (N-terminal biotin on a linker: ado-ado)
T7 sequence (O75970 1624-1722, limits assumed, looked up): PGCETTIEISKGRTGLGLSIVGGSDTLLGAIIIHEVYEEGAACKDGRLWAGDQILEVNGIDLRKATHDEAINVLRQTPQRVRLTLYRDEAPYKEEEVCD

Question: Which pKd does the source give for LVEEEEPMNL [HDAC7, Q8WUI4] here?
Answer: below the threshold

target: T8, MPP6, Q9NZW5; experiment: holdup assay; design: key: below the threshold = too weak to quantify, mostly under pKd 3.1 to 4; settings: plain residues with an end cap or a label only (N-terminal biotin on a linker: ado-ado)
T8 sequence (Q9NZW5 125-219, limits assumed, looked up): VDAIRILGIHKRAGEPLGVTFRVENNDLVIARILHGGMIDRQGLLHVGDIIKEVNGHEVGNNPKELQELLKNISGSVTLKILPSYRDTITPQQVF

Question: Which pKd does the source give for LVEEEEPMNL [HDAC7, Q8WUI4] here?
Answer: 3.57

target: T9, GRIP1_7, Q9Y3R0; experiment: holdup assay; design: key: below the threshold = too weak to quantify, mostly under pKd 3.1 to 4; settings: plain residues with an end cap or a label only (N-terminal biotin on a linker: ado-ado)
T9 sequence (Q9Y3R0 999-1096, limits assumed, looked up): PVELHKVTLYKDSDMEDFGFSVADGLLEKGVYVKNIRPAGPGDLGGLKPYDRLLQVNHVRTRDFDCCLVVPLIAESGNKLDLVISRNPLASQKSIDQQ

Question: With LVEEEEPMNL [HDAC7, Q8WUI4] as the binder, how does the pKd read?
Answer: below the threshold

target: T10, DFNB31_2, Q9P202; experiment: holdup assay; design: key: below the threshold = too weak to quantify, mostly under pKd 3.1 to 4; settings: plain residues with an end cap or a label only (N-terminal biotin on a linker: ado-ado)
T10 sequence (Q9P202 274-371, limits assumed, looked up): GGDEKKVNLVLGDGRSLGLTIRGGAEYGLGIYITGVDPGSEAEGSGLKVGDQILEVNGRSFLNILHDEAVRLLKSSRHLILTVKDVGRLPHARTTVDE

Question: LVEEEEPMNL [HDAC7, Q8WUI4] was tested. Which pKd did it give?
Answer: below the threshold
